Measured values reported in publication PMC11357225.
Where “and” joins values, the source holds several entries; their conditions need not be identical. Equal entries are not always repeated.

How the values were obtained:
[1] = target: human lactoferrin (human); assay: SPR
[2] = target: human lactoferrin (human)
[3] = target: human lactoferrin (human); assay: native gel or EMSA

Substance	Kd [1]	percent of input bound [2] [%]	koff [1] [s⁻¹]	kon [1] [M⁻¹ s⁻¹]	stoichiometry N [3]
SARS-CoV-2 spike protein (S-protein), ancestral Wuhan-like variant (from UniProt P0DTC2 14-1213) (natural protein)	0.00432 µM	60			
receptor-binding domain of the SARS-CoV-2 S-protein, ancestral Wuhan-like variant (from UniProt P0DTC2) (domain or fragment)	1.26 µM and 1.31 µM	30	0.308	245000	1
